A short description of this data set: self-splicing fitness, log relative to wild type (ln ratio); higher = more splicing; Tetrahymena group I intron in knt gene, E. coli kanamycin selection, DiMSum; sequences stand for … in CUCUCU…GGAGGGAAAAGUUAUCAGGCAUGCACCUGGUAGCUAGUCUUUAAACCAAUAGAUUGCAUCGGUUUAAAAGGCAAGACCGUCAAAUUGCGGGAAAGGGGUCAACAGCCGUUCAGUACCAAGUCUCAGGGGAAACUUUGAGAUGGCCUUGCAAAGGGUAUGGUAAUAAGCUGACGGACAUGGUCCUAACCACGCAGCCAAGUCCUAAGUCAACAGAUCUUCUGUUGAUAUGGAUGCAGUUCACAGACUAAAUGUCGGUCGGGGAAGAUGUAUUCUUCUCAUAAGAUAUAGUCGGACCUCUCCUUAAUGGGAGCUAGCGGAUGAAGUGAUGCAACACUGGAGCCGCUGGGAACUAAUUUGUAUGCGAAAGUAUAUUGAUUAGUUUUGGAGUACUCGUGGUCG
The procedure, abridged:
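Colonies from six replicate transformations of E. coli BL21(DE3) were pooled and amplicon-sequenced on an Illumina HiSeq 2500. The library placed an intron with all eight P1ex-region nucleotides randomised inside the knt kanamycin-resistance gene on pET-22b(+), and cells grew overnight at 37°C or 30°C on LB agar with or without 25 μg/mL kanamycin (plus 100 μg/mL carbenicillin, 50 μM IPTG, 0.2% rhamnose). Fitness is the DiMSum error-weighted combination of wild-type-normalised replicate fold changes, kanamycin versus none.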

± gives the uncertainty stated by the source.

On to UGCAAGCAAUAUUACGGGCA, for which the “self-splicing fitness (ln)” value was -1.4 ± 0.11 (30 °C) and -0.815 ± 0.096 (37 °C).
In the case of AAAGAGCAAUAUUACGAAUG, the “self-splicing fitness (ln)” value (30 °C) is -2.69 ± 0.2.
In the case of GGGCAGCAAUAUUACGAAGG, the “self-splicing fitness (ln)” value runs as follows: (30 °C) -3.32 ± 0.27; (37 °C) -2.45 ± 0.35.
Consider GACUAGCAAUAUUACGCGAA, for which the “self-splicing fitness (ln)” value runs as follows: (30 °C) -1.83 ± 0.18; (37 °C) -0.638 ± 0.17.
The like results for CGUUAGCAAUAUUACGCUGG were, in that order, -1.45 ± 0.28 and -1.83 ± 0.31.
For GACCAGCAAUAUUACGGGUC the same measures were -4.01 ± 0.21 and -3.33 ± 0.22.
With CCCUAGCAAUAUUACGUGCG, the “self-splicing fitness (ln)” value is -2.36 ± 0.13 (30 °C) and -2.97 ± 0.17 (37 °C).
Turning to CUCCAGCAAUAUUACGGCUU, the “self-splicing fitness (ln)” value runs as follows: (30 °C) -1.73 ± 0.19; (37 °C) -2.76 ± 0.31.
As for GAUUAGCAAUAUUACGAUGC, the “self-splicing fitness (ln)” value by setting is: (30 °C) -0.852 ± 0.083; (37 °C) -0.525 ± 0.095.
For CCCAAGCAAUAUUACGCUGG the same measures were -3.55 ± 0.19 and -2.52 ± 0.19.
Regarding GUCCAGCAAUAUUACGGAGC, the “self-splicing fitness (ln)” value was -2.17 ± 0.087 (30 °C) and -2.68 ± 0.088 (37 °C).
The like results for UCAGAGCAAUAUUACGUAUC were, in that order, -2.86 ± 0.36 and -1.41 ± 0.31.
As to UUAAAGCAAUAUUACGGGUA, the “self-splicing fitness (ln)” value was -0.431 ± 0.069 (30 °C) and 0.283 ± 0.08 (37 °C).
For UACAAGCAAUAUUACGAGGU the same measures were -4.06 ± 0.28 and -1.94 ± 0.28.
For AACGAGCAAUAUUACGAGGU the same measures were -3.56 ± 0.18 and -1.96 ± 0.16.
For CGCAAGCAAUAUUACGUGGA, the “self-splicing fitness (ln)” value is, setting by setting: (30 °C) -3.37 ± 0.16; (37 °C) -1.6 ± 0.095.
For CUUUAGCAAUAUUACGGAGG the same measures were -1.75 ± 0.15 and -1.29 ± 0.19.
For CUUCAGCAAUAUUACGUUCC the same measures were -2.64 ± 0.43 and -1.71 ± 0.36.
As to UCUUAGCAAUAUUACGGAAG, for the setting “37 °C”, the “self-splicing fitness (ln)” value is -1.81 ± 0.41.
In the case of CCUUAGCAAUAUUACGUGUG, the “self-splicing fitness (ln)” value (30 °C) is -1.61 ± 0.063 and the “self-splicing fitness (ln)” value (37 °C) was -0.595 ± 0.078.
The like results for CACAAGCAAUAUUACGAUAA were, in that order, -4.26 ± 0.33 and -2.22 ± 0.16.
The like results for UACCAGCAAUAUUACGAUUC were, in that order, -2.36 ± 0.21 and -1.55 ± 0.18.
The like results for AUAGAGCAAUAUUACGUCCG were, in that order, -2.71 ± 0.23 and -3.65 ± 0.34.
With AUUGAGCAAUAUUACGGAAG, the “self-splicing fitness (ln)” value (37 °C) is -2.63 ± 0.32.
For GAGGAGCAAUAUUACGAUAU, the “self-splicing fitness (ln)” value was -1.34 ± 0.26 (30 °C) and -2.53 ± 0.45 (37 °C).
Take UCUAAGCAAUAUUACGUUAG: the “self-splicing fitness (ln)” value was -2.19 ± 0.1 (30 °C) and -1.04 ± 0.1 (37 °C).
Take UUGAAGCAAUAUUACGCUAC: the “self-splicing fitness (ln)” value (37 °C) was -1.75 ± 0.37.
As to GUGGAGCAAUAUUACGUGCG, the “self-splicing fitness (ln)” value was -2.23 ± 0.15 (30 °C) and -2.9 ± 0.29 (37 °C).
In the case of GACUAGCAAUAUUACGCCUA, the “self-splicing fitness (ln)” value was -0.114 ± 0.18 (30 °C) and -0.547 ± 0.15 (37 °C).
Turning to UGAAAGCAAUAUUACGUCUC, the “self-splicing fitness (ln)” value is, setting by setting: (30 °C) -3.36 ± 0.24; (37 °C) -2.18 ± 0.23.
AGUGAGCAAUAUUACGCGCU: the “self-splicing fitness (ln)” value (37 °C) was -1.83 ± 0.39.
For UCCCAGCAAUAUUACGCGUU, the “self-splicing fitness (ln)” value reads like this: (30 °C) -1.11 ± 0.075; (37 °C) -0.493 ± 0.089.
Turning to CUGGAGCAAUAUUACGGUAU, the “self-splicing fitness (ln)” value is, setting by setting: (30 °C) -4.78 ± 0.41; (37 °C) -2.49 ± 0.31.
GUCCAGCAAUAUUACGGCUA: the “self-splicing fitness (ln)” value runs as follows: (30 °C) -0.25 ± 0.068; (37 °C) 0.143 ± 0.073.
Regarding UGUUAGCAAUAUUACGAGUA, the “self-splicing fitness (ln)” value (30 °C) was -1.32 ± 0.13 and the “self-splicing fitness (ln)” value (37 °C) is -0.347 ± 0.13.
The like results for GAAUAGCAAUAUUACGUGAA were, in that order, -1.74 ± 0.092 and -0.782 ± 0.11.
In the case of GAUCAGCAAUAUUACGGAUA, the “self-splicing fitness (ln)” value (30 °C) is -0.42 ± 0.067 and the “self-splicing fitness (ln)” value (37 °C) turned out to be 0.0803 ± 0.077.
The like results for ACAGAGCAAUAUUACGGUCU were, in that order, -3.77 ± 0.18 and -2.48 ± 0.15.
For AUGCAGCAAUAUUACGCUGU the same measures were -3.46 ± 0.21 and -2.63 ± 0.45.
The like results for UCCGAGCAAUAUUACGGGUU were, in that order, -3.41 ± 0.14 and -1.9 ± 0.15.
UUCCAGCAAUAUUACGACAU: the “self-splicing fitness (ln)” value is -2.874 ± 0.018 (30 °C) and -1.61 ± 0.035 (37 °C).
For ACUAAGCAAUAUUACGAUCC the same measures were -1.02 ± 0.14 and -0.609 ± 0.16.
The like results for GCGGAGCAAUAUUACGUGCG were, in that order, -3.79 ± 0.35 and -2.55 ± 0.27.
Turning to ACGAAGCAAUAUUACGUUAC, the “self-splicing fitness (ln)” value was -3.77 ± 0.4 (30 °C) and -1.17 ± 0.16 (37 °C).
The like results for UCAAAGCAAUAUUACGCGUU were, in that order, -3.65 ± 0.18 and -3.64 ± 0.29.
For ACAAAGCAAUAUUACGUAAC the same measures were -3.21 ± 0.21 and -1.67 ± 0.14.
Consider UCCUAGCAAUAUUACGAGCA, for which the “self-splicing fitness (ln)” value runs as follows: (30 °C) -1.64 ± 0.42; (37 °C) -1.11 ± 0.23.
On to UGAAAGCAAUAUUACGAACG, for which the “self-splicing fitness (ln)” value runs as follows: (30 °C) 0.0634 ± 0.17; (37 °C) 0.684 ± 0.2.
Take CCUCAGCAAUAUUACGAUGA: the “self-splicing fitness (ln)” value is -2.63 ± 0.21 (30 °C) and -2.8 ± 0.28 (37 °C).
For GGAUAGCAAUAUUACGACGC the same measures were -0.274 ± 0.11 and 0.262 ± 0.12.
Turning to GCGUAGCAAUAUUACGGGCC, under “30 °C”, the “self-splicing fitness (ln)” value is -3.1 ± 0.32.
As for AAUAAGCAAUAUUACGCUCA, the “self-splicing fitness (ln)” value (30 °C) was -0.304 ± 0.091 and the “self-splicing fitness (ln)” value (37 °C) is -0.155 ± 0.12.
As for GCGCAGCAAUAUUACGCGAU, where the note is “37 °C”, the “self-splicing fitness (ln)” value is -2.14 ± 0.3.
As to UAUCAGCAAUAUUACGCAGG, the “self-splicing fitness (ln)” value (30 °C) was -1.01 ± 0.055 and the “self-splicing fitness (ln)” value (37 °C) came to 0.028 ± 0.07.
Regarding CACCAGCAAUAUUACGAAUA, the “self-splicing fitness (ln)” value is, setting by setting: (30 °C) -3.93 ± 0.21; (37 °C) -2.62 ± 0.16.
Take UCGUAGCAAUAUUACGGCGA: the “self-splicing fitness (ln)” value runs as follows: (30 °C) -1.85 ± 0.37; (37 °C) -0.98 ± 0.2.
CUCCAGCAAUAUUACGGAUU: the “self-splicing fitness (ln)” value (30 °C) was -2.59 ± 0.26 and the “self-splicing fitness (ln)” value (37 °C) is -2.07 ± 0.18.
On to AGCAAGCAAUAUUACGAGAC, for which the “self-splicing fitness (ln)” value was -4.19 ± 0.36 (30 °C) and -2.81 ± 0.21 (37 °C).
The like results for UGCAAGCAAUAUUACGGAAU were, in that order, -2.88 ± 0.19 and -2.45 ± 0.2.
Take GCGAAGCAAUAUUACGACUU: the “self-splicing fitness (ln)” value is -1.4 ± 0.1 (30 °C) and -0.741 ± 0.12 (37 °C).
For UUGAAGCAAUAUUACGACUU the same measures were -1.37 ± 0.14 and 0.101 ± 0.17.
The like results for UGCGAGCAAUAUUACGUAAU were, in that order, -2.35 ± 0.22 and -1.91 ± 0.24.
The like results for CGCGAGCAAUAUUACGUCAG were, in that order, -1.19 ± 0.092 and -1.27 ± 0.11.
For UGUUAGCAAUAUUACGGUCG, the “self-splicing fitness (ln)” value runs as follows: (30 °C) -0.217 ± 0.15; (37 °C) 0.99 ± 0.18.
For ACAGAGCAAUAUUACGACUC the same measures were -2.94 ± 0.33 and -2.47 ± 0.24.
With UCACAGCAAUAUUACGAUGG, the “self-splicing fitness (ln)” value (30 °C) was -1.52 ± 0.06 and the “self-splicing fitness (ln)” value (37 °C) was -0.512 ± 0.081.
For CCUGAGCAAUAUUACGCGUA the same measures were -3.77 ± 0.34 and -2.33 ± 0.23.
For GUGGAGCAAUAUUACGAUCA the same measures were -2.19 ± 0.49 and -0.101 ± 0.2.
For GUCGAGCAAUAUUACGGUUA the same measures were -2.03 ± 0.49 and 0.142 ± 0.25.
Regarding UACUAGCAAUAUUACGGCCA, the “self-splicing fitness (ln)” value was -0.179 ± 0.15 (30 °C) and 0.376 ± 0.16 (37 °C).
For GGCUAGCAAUAUUACGGGGG the same measures were -3.9 ± 0.37 and -2.09 ± 0.21.
With UUGUAGCAAUAUUACGGUCU, the “self-splicing fitness (ln)” value (30 °C) was -2.53 ± 0.21 and the “self-splicing fitness (ln)” value (37 °C) is -1.53 ± 0.17.
Turning to ACCGAGCAAUAUUACGUGAC, the “self-splicing fitness (ln)” value (30 °C) was -4.19 ± 0.34 and the “self-splicing fitness (ln)” value (37 °C) is -1.4 ± 0.15.
CACCAGCAAUAUUACGUGCG: the “self-splicing fitness (ln)” value reads like this: (30 °C) -0.627 ± 0.04; (37 °C) -0.299 ± 0.056.
For GGUGAGCAAUAUUACGUUGU the same measures were -4.18 ± 0.31 and -2.04 ± 0.25.
For AGACAGCAAUAUUACGUGAG the same measures were -1.67 ± 0.056 and -0.569 ± 0.087.
Turning to GUCUAGCAAUAUUACGUUUU, the “self-splicing fitness (ln)” value was -1.2 ± 0.08 (30 °C) and -0.759 ± 0.084 (37 °C).
